Data: patent US20250289866A1 (published 2025)

Biological target: T1, NDC80 (NDC80 CT antigen; peptide NDC80-330) peptide on HLA-A*02:01 (human)
T1 peptide: GLNEEIARV
Test: multimer staining

binding result: recognises
B1: NDC80-330 specific TCR (TCR, V domains shown)
Valpha: EDQVTQSPEALRLQEGESSSLNCSYTVSGLRGLFWYRQDPGKGPEFLFTLYSAGEEKEKERLKATLTKKESFLHITAPKPEDSATYLCAVQAGSSASKIIFGSGTRLSIRP
Vbeta: DAGVTQSPTHLIKTRGQQVTLRCSPKSGHDTVSWYQQALGQGPQFIFQYYEEEERQRGNFPDRFSGHQFPNYSSELNVNALLLGDSALYLCASSLSGGIYEQYFGPGTRLTVT
